Each block holds one binder with its values, some of them ahead of it.
Columns and labels:
Mouse BSSL, recombinant [1] = target: T1, Mouse BSSL, recombinant (mouse, UniProt Q64285 21-599); experiment: SPR steady state, antibody immobilised
T1 construct: Bought (R&D Systems, Cat. no 5658-CE); also called mBSSL; murine BSSL
T1 sequence: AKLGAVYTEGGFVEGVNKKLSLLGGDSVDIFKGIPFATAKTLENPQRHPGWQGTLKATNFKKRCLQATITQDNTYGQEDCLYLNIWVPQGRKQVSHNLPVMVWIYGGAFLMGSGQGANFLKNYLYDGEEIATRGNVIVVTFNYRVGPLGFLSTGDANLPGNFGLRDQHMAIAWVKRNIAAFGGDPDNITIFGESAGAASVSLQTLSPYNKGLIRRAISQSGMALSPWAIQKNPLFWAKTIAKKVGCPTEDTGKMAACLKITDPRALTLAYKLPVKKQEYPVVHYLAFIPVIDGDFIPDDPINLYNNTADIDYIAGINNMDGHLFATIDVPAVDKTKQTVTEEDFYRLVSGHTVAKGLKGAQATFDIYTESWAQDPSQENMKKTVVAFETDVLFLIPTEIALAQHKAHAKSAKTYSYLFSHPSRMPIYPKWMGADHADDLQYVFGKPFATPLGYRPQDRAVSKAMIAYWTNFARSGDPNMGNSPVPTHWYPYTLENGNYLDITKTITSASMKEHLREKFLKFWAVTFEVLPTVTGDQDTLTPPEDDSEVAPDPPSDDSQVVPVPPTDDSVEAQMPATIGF
Procedure: (§1) Single cycle kinetics was used to measure the affinity of the antibodies. AS20 hIgG1 LALA-PG and anti-NP hIgG1 LALA-PG were immobilized on a CM5 S sensor chip by primary amine coupling using NHS-EDC chemistry. Five different concentrations of antigen (1:3 dilutions starting from 50 nM for hBSSL and 1:2 dilutions starting from 800 nM for mBSSL) were injected over the surface. The sensor chip surface was regenerated with 10 mM glycine-HCl pH 2.1. Obtained single cycle kinetic data was fitted to a Langmuir 1:1 binding model and kinetic parameters were retrieved using the software BlAevaluation. For mBSSL, a steady state analysis was also performed by plotting the response level at equilibrium against each concentration, and KD values were retrieved by the BlAevalution software.

[2] = target: T2, Human BSSL (bile salt-stimulated lipase), native (human, UniProt P19835 21-753); experiment: SPR single cycle kinetics, antibody immobilised
T2 construct: Native full-length protein purified from human milk (Astra Hässle AB); also called hBSSL; non-biotinylated human BSSL
T2 sequence: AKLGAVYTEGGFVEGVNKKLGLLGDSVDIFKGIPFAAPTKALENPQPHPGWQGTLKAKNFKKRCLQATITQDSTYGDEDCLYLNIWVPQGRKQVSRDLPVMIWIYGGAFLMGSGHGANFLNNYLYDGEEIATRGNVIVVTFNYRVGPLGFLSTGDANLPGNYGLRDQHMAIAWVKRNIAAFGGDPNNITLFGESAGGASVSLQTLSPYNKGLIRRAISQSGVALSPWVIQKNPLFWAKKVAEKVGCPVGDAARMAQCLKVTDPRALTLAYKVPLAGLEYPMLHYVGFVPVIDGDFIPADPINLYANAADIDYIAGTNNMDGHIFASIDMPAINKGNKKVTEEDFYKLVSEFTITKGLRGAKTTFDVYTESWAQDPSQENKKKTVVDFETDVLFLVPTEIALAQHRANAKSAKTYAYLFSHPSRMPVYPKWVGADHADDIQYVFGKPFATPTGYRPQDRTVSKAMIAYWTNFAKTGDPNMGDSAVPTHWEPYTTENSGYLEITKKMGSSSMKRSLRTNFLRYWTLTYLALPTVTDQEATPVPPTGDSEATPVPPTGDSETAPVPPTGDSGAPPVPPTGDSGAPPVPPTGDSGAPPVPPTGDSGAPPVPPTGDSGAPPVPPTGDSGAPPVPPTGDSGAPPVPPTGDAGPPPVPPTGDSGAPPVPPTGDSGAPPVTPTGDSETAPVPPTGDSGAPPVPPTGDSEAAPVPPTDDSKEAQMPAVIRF
Procedure: as §1
A single cycle kinetic SPR approach was used to determine the affinity of the IgG.

[3] = target: T2, Human BSSL (bile salt-stimulated …); experiment: SPR kinetic screen, single concentration (estimated)
Mouse BSSL, recombinant [4] = target: T1, Mouse BSSL, recombinant; experiment: HTRF competition
[5] = target: T2, Human BSSL (bile salt-stimulated …); experiment: SPR single cycle kinetics, scFv captured by anti-FLAG M2
[6] = target: T2, Human BSSL (bile salt-stimulated …); experiment: ELISA, hBSSL directly coated at 1 µg/ml, detection HRP anti-FLAG M2, A450
[7] = target: T2, Human BSSL (bile salt-stimulated …); experiment: cell-based or functional assay
Mouse BSSL, recombinant [8] = target: T1, Mouse BSSL, recombinant; experiment: SPR steady state, hIgG4 S228P captured by anti-Fab; in-house production batch (Example 9); Table 12 marks this value # as unreliable
Procedure: (§2) Kinetic parameters of the hIgG4 S228P clones were determined by SPR using BIACORE® T200 (GE Healthcare). Single cycle kinetics was used to measure the affinity of the purified hIgG4 molecules to human and mouse BSSL. An anti-Fab antibody (GE Healthcare, #28958325) was immobilized on a CM5 S sensor chip by primary amine coupling using NHS-EDC chemistry. hIgG4 was captured by the anti-Fab antibody, and subsequently, five different concentrations of hBSSL (1:5 dilutions starting from 50 nM) or mBSSL (1:5 dilutions starting from 500 nM) were injected over the surface. The sensor chip surface was regenerated with 10 mM glycine-HCl pH 2.1. For binding to human BSSL, single cycle kinetic data was fitted to a 1:1 binding model and kinetic parameters were retrieved using software BlAevaluation. For mouse BSSL, a steady state analysis was performed by plotting the response level at equilibrium against each concentration, and KD values were retrieved by the BlAevalution software.

Biotinylated human BSSL [9] = target: T3, Biotinylated human BSSL (human, UniProt P19835 21-753, Biotinylated on glycosacarides, 30-40 biotin/BSSL); experiment: flow cytometry displacement assay; 1.5 ug antibody, 1 ug b-hBSSL
T3 construct: hBSSL biotinylated in house; also called b-hBSSL; human BSSL-biotin
T3 sequence: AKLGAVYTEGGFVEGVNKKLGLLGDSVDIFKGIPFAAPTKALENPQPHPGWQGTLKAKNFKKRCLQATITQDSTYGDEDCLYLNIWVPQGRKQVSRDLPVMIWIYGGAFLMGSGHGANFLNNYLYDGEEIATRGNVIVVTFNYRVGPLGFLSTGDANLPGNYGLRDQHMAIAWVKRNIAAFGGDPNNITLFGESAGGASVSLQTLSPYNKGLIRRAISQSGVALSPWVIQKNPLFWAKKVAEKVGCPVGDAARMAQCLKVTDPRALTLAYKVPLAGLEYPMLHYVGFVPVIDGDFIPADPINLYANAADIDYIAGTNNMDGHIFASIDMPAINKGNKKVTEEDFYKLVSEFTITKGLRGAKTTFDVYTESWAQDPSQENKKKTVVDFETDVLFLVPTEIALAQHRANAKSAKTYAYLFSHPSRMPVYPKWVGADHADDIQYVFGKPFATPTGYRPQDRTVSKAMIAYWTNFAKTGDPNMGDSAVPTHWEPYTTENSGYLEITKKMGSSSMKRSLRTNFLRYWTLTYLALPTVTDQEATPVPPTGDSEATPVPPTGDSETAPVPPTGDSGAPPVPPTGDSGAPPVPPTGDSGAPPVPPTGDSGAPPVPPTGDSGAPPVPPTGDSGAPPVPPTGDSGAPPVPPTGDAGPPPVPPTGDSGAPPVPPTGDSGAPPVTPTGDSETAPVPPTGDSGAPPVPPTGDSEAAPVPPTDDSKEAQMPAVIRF
Outline: (§3)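 Antibody (0.5–3.0 μg per reaction) preincubated with 1 μg biotinylated human BSSL in PBS pH 7.4, 30 min at 4 °C, then with human buffy coat 30 min at 4 °C. After erythrocyte lysis/fixation, bound BSSL on CD14+ monocytes detected by labelled streptavidin via flow cytometry.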

[10] = target: T2, Human BSSL (bile salt-stimulated …); experiment: cell-based or functional assay; remark: listed apart in the source
Biotinylated human BSSL [11] = target: T3, Biotinylated human BSSL; experiment: flow cytometry displacement assay; 3.0 ug antibody, 1 ug b-hBSSL
Outline: as §3

[12] = target: T2, Human BSSL (bile salt-stimulated …); experiment: SPR single cycle kinetics, captured by anti-Fab, Absolute Antibody batch
Procedure: as §2, with “Healthcare).” for “Healthcare). Single cycle kinetics was used to measure the affinity of the purified hIgG4 molecules to human and mouse BSSL.”, “(GE” for “(GE Healthcare,”, “chemistry. The” for “chemistry.”, “hIgG4 antibodies were” for “hIgG4 was”, “(1:5 dilutions, 0.08-50” for “(1:5 dilutions starting from 50”, “mBSSL (1:2 dilutions, 50-800” for “mBSSL (1:5 dilutions starting from 500”

[13] = target: T2, Human BSSL (bile salt-stimulated …); experiment: SPR single cycle kinetics, hIgG4 S228P captured by anti-Fab
Outline: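 hIgG4 S228P captured on an immobilized anti-Fab surface; five BSSL concentrations injected, 1:5 dilutions from 50 nM (human) or from 500 nM (mouse). Human BSSL: single-cycle kinetics, 1:1 fit. Mouse BSSL: KD from steady-state equilibrium response versus concentration. Regeneration with 10 mM glycine-HCl pH 2.1.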

- Kd (Mouse BSSL, recombinant [1]): 361 nM
- Kd [2]: 0.91 nM
B1: AS20 hIgG1 LALA-PG (antibody)
heavy: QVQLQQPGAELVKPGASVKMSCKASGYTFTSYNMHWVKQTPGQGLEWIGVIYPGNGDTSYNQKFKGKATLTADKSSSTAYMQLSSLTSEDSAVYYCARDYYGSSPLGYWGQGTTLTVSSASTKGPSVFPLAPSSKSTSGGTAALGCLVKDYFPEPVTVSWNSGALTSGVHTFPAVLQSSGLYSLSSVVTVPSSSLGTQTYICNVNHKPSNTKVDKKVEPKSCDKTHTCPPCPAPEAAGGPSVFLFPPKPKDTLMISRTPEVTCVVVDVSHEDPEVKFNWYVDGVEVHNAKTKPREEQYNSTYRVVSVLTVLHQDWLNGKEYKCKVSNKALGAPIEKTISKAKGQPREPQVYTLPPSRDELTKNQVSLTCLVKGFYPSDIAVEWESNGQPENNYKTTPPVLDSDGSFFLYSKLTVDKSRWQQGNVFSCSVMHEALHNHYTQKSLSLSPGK
light: QIVLTQSPAVMSASPGEKVTMTCSASSSISYMHWYQQKPGTSPKRWIYDTSKLASGVPARFSGSGSGTSYSLTISSMEAEDAATYYCHQRSSYPTFGGGTKLEIKRTVAAPSVFIFPPSDEQLKSGTASVVCLLNNFYPREAKVQWKVDNALQSGNSQESVTEQDSKDSTYSLSSTLTLSKADYEKHKVYACEVTHQGLSSPVTKSFNRGEC
notes: also called AS20 IgG1 LALA-PG

- Kd [3]: 2 nM
- fold lower affinity than for human BSSL (Mouse BSSL, recombinant [4]): ~100 fold
- Kd [5]: 0.6 nM
- koff [5]: 0.00012 s⁻¹
- kon [5]: 190000 M⁻¹ s⁻¹
- EC50 (read off the curve) [6]: ~0.02 µg/mL
B2: AS20 scFv (scFv, V domains shown)
VH: QVQLQQPGAELVKPGASVKMSCKASGYTFTSYNMHWVKQTPGQGLEWIGVIYPGNGDTSYNQKFKGKATLTADKSSSTAYMQLSSLTSEDSAVYYCARDYYGSSPLGYWGQGTTLTVSS
VL: QIVLTQSPAVMSASPGEKVTMTCSASSSISYMHWYQQKPGTSPKRWIYDTSKLASGVPARFSGSGSGTSYSLTISSMEAEDAATYYCHQRSSYPTFGGGTKLEIK

- BSSL hydrolysis of cholesterol esters, relative value (no antibody = 100%); 0.19 ug antibody [7]: 94.8%
- BSSL hydrolysis of cholesterol esters, relative value (no antibody = 100%); 0.38 ug antibody [7]: 97.2%
- BSSL hydrolysis of cholesterol esters, relative value (no antibody = 100%); 0.75 ug antibody [7]: 93.9%
- BSSL hydrolysis of cholesterol esters, relative value (no antibody = 100%); 1.5 ug antibody [7]: 95.3%
- BSSL hydrolysis of cholesterol esters, relative value (no antibody = 100%); 3.0 ug antibody [7]: 99%
- BSSL hydrolysis of cholesterol esters, relative value (no antibody = 100%); 6.0 ug antibody [7]: 90.5%
- Kd (Mouse BSSL, recombinant [8]): 111 nM
- percentage reduction of b-hBSSL binding to CD14+ monocytes (Biotinylated human BSSL [9]): 52%
- BSSL hydrolysis of triglycerides, relative value (no antibody = 100%); 0.19 ug antibody [10]: 109%
- BSSL hydrolysis of triglycerides, relative value (no antibody = 100%); 0.38 ug antibody [10]: 123%
- BSSL hydrolysis of triglycerides, relative value (no antibody = 100%); 0.75 ug antibody [10]: 129%
- BSSL hydrolysis of triglycerides, relative value (no antibody = 100%); 1.5 ug antibody [10]: 120%
- BSSL hydrolysis of triglycerides, relative value (no antibody = 100%); 3.0 ug antibody [10]: 99.2%
- BSSL hydrolysis of triglycerides, relative value (no antibody = 100%); 6.0 ug antibody [10]: 104%
- percentage reduction of b-hBSSL binding to CD14+ monocytes (Biotinylated human BSSL [11]): 61%
- Kd [12]: 1.2 nM
- Kd [13]: 1.2 nM
B3: S-SL048-106 hIgG4 S228P (antibody, V domains shown)
VH: QVQLVQSGAEVKKPGASVKVSCKASGYTFTSYNMHWVRQAPGQGLEWIGVIYPGDGSTSYNQKFQGRVTMTRDTSTSTVYMELSSLRSEDTAVYYCARDYYGSSPLGYWGQGTLVTVSS
VL: DIQMTQSPSSLSASVGDRVTITCSASSSISYMNWYQQKPGKAPKLLIYATSKLPSGVPSRFSGSGSGTDFTLTISSLQPEDFATYYCHQRSSTPTFGQGTKLEIKR
notes: also called mAb106
